The values below come from patent publication US20240173407A1.

The assay deals with Bicistronic receptor WU76UB CD3E_CD3E_2B4_CD3Z_CD3G_CD3G_OX40. Put plainly: cell-based or functional assay.
Bicistronic receptor WU76UB CD3E_CD3E_2B4_CD3Z_CD3G_CD3G_OX40, sequence (chain, as listed by the source limits assumed, form in doubt): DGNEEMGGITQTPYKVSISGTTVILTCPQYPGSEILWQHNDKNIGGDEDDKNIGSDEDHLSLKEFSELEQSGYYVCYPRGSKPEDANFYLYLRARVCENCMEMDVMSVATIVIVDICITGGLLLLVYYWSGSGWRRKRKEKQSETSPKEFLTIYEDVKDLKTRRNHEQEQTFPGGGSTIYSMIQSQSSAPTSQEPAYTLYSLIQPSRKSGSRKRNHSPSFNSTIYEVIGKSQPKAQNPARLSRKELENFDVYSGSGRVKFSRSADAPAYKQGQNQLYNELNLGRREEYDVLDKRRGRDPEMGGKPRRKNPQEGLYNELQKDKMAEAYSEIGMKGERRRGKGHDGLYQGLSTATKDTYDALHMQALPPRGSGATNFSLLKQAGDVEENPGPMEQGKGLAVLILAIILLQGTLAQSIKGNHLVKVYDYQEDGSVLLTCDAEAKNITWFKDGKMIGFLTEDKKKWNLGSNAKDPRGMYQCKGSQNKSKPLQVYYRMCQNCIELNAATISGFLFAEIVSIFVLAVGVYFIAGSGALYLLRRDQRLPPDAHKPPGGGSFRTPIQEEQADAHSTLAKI

Consider Blinatumomab (bispecific antibody), for which the fold change in p-S6 levels worked out at 3 fold.
